We go through three molecules from paper PMC5345068, “A Glycyrrhetinic Acid-Modified Curcumin Supramolecular Hydrogel for liver tumor targeting therapy” (Scientific Reports, 2017).

The conditions of data set [1]: water; cited from earlier work. The text has this:
Curcumin (Cur), a hydrophobic polyphenol compound, is derived from the rhizomes of Curcuma longa. Cur has a wide range of therapeutic properties, such as anti-inflammation[18], anti-oxidant[19], anti-mutagenic[20], and anticancer[21] with low or no intrinsic toxicity to healthy cells. […] Fig. S-6A). […] The minimum gelation ...

Data set [2] deals with HepG2 cells. In words: cells. The settings on record: Homo sapiens, HepG2, 48 h, read-out: IC50 HepG2 mean (Table S-1).
Data set [3] deals with mouse NIH 3T3 cells. In words: cells. The settings on record: NIH3T3, 48 h, read-out: IC50, mouse fibroblast 3T3 cells.
Data set [4] can be described thus: solubility of pro-gelators in PBS. As for the experimental part:
(§1) We therefore tested the gelation ability of the obtained two compounds. […] We then used a rheometer to characterize the resulting hydrogels obtained at 2 h time point. […] We then investigated the fluorescence spectra of the precursors (GA-cur and Nap-cur) and the hydrogels (GA-gel and Nap-gel).
(§2) 3 mg of GA-Cur or Nap-Cur was dissolved in 0.25 mL phosphate buffer saline (PBS) buffer solution (pH = 7.4, adjusted by 1.5 equiv. of Na2CO3). 4equiv. of glutathione (GSH) in 0.05 mL of PBS buffer (pH = 7.4, adjusted by 3.6equiv. of Na2CO3) was added to the above solution.

Data set [5] in a line: critical micelle concentration (CMC). Type of data set: physicochemical. The settings on record: Fig. S-7. The text has this:
Fig. S-7. The critical micelle concentration (CMC) of A) GA-cur and B) Nap-cur.
Fig. S-8. The LC-MS traces of the GA-Cur (mw=2398.78,1/ mw=1200.6) and the formed
Fig. S-9. The LC-MS traces of the Nap-Cur ([…]/ mw=1058.6) and the formed

For data set [6], the system named is HepG2 cells. In words: cellular uptake, HepG2. The settings on record: 25 μM, 4 h, 6-well plates, 2.5 × 10^5 cells per well, DMSO lysis, microplate reader excitation 488 nm. As for the experimental part:
(§3) After being incubated for 24 h in 6-well plates at a density of 2.5 × 10^5 cells per-well, HepG2 cells were treated with 2 mL growth medium containing 25 μM of Cur, GA-Cur, Nap-Cur, or GA + GA-Cur, respectively. In GA + GA-Cur group, 50 μM of GA was used to pre-treat cells for 2 hours. HepG2 cells were then rinsed for three times with PBS following with a treatment with 25 μM of GA-Cur for another 4 hours. After 4 hours’ incubation, cells were washed for three times with PBS to remove excess compounds and 500 μL of DMSO was added to each well to dissolve compounds in cells. The solution were collected after being treated with sonication for 15 min. The amount of compounds in the cells was determined by a microplate reader excitated at 488 nm. The same experiments were performed with 3T3 cells.

Another data set has as its system 3T3 cells. Kind of data set: cellular uptake, 3T3. The conditions noted are these: same experiment as HepG2: 25 μM, 4 h; Fig. S-15. As for the experimental part:
as §3

Data set [7] has as its system HepG2 cells. The settings on record: 48 h.
In data set [8] the test system is mouse NIH 3T3 cells. The conditions noted are these: read-out: IC50, mouse fibroblast 3T3 cells; MTT, 48 h.
A short description of data set [9]: gelation test with GSH and hydrogel stability. The conditions noted are these: PBS pH 7.4, disulfide reduction by GSH. It is filed as physicochemical. The protocol:
as §1, §2

In general, IC50 refers to the point on the concentration scale where inhibition reaches its midpoint.

The structures appear in SMILES notation. Read-outs that look alike come from different tables or passages of the source.

In the case of `COc1cc(/C=C/C(=O)CC(=O)/C=C/c2ccc(O)c(OC)c2)ccc1O` [Cur, Curcumin], the aqueous solubility entry in data set [1] is reported as “≈ 11 ng/ml”. For the same molecule, the half-inhibitory concentration (IC50) with HepG2 cells [2] was 26.5 µM; in the data set with mouse NIH 3T3 cells [3], 28 µM.
Regarding `COc1cc(/C=C/C(=O)CC(=O)/C=C/c2ccc(OC(=O)CCCC(=O)NCCCC[C@H](NC(=O)[C@H](Cc3ccc(O)cc3)NC(=O)[C@H](Cc3ccccc3)NC(=O)[C@H](Cc3ccccc3)NC(=O)CNC(=O)Cc3ccc4ccccc4c3)C(=O)N[C@@H](CCC(=O)O)C(=O)NCCSSCCNC(=O)CCC(=O)N[C@@H](CCC(=O)O)C(=O)N[C@@H](CCCNC(=N)N)C(=O)NCC(=O)N[C@@H](CC(=O)O)C(=O)O)c(OC)c2)ccc1O` [Nap-Cur, Nap–GFFYK(Cur)E-ss-ERGD], in data set [4] (PBS pH = 7.4, 10 mg/mL = 1 wt%, optical image), the “well solubilized in phosphate buffer saline at a concentration of” value was at least 10 mg/mL. The “critical micelle concentration (CMC)” value in [5] is about 1349 µg/mL. Besides, in the data set with HepG2 cells [6], the “intra-cellular concentration of Cur, HepG2” value is 670 ng/well. Further, the “intra-cellular concentration of Cur, 3T3” value with 3T3 cells came out at 641 ng/well. Moreover, the IC50 is 29.7 µM in the data set with HepG2 cells [7] (read-out: IC50 against HepG2, MTT) and 28.7 µM in the data set on mouse NIH 3T3 cells [8].
For the molecule `COc1cc(/C=C/C(=O)CC(=O)/C=C/c2ccc(OC(=O)CCCC(=O)NCCCC[C@H](NC(=O)[C@H](Cc3ccc(O)cc3)NC(=O)[C@H](Cc3ccccc3)NC(=O)[C@H](Cc3ccccc3)NC(=O)CNC(=O)[C@@]3(C)CC[C@]4(C)CC[C@]5(C)C(=CC(=O)[C@@H]6[C@@]7(C)CC[C@H](O)C(C)(C)[C@@H]7CC[C@]65C)[C@@H]4C3)C(=O)N[C@@H](CCC(=O)O)C(=O)NCCSSCCNC(=O)CCC(=O)N[C@@H](CCC(=O)O)C(=O)N[C@@H](CCCNC(=N)N)C(=O)NCC(=O)N[C@@H](CC(=O)O)C(=O)O)c(OC)c2)ccc1O` [GA-Cur, GA–GFFYK(Cur)E-ss-ERGD], in data set [4], the “well solubilized in phosphate buffer saline at a concentration of” value was at least 10 mg/mL. For the same molecule, in data set [5], the “critical micelle concentration (CMC)” value is reported as “about 1105 μg/mL”. Moreover, the minimum gelation concentration entry in data set [9] is reported as “about 0.75 wt%”. Moreover, half-maximal inhibition with HepG2 cells [7] (IC50) was put at 10.7 µM.
